Laboratory results published in patent publication US20160237119A1 (UNIVERSITY OF TOKYO, published 2016).
Bridges are numbered along the chain shown (N, C = ends). Where no end group is shown, it is not given here. fluorescein = fluorescein fluorescent label attached to the peptide

Biological target: T1, human c-Met (human, UniProt P08581 25-1390)
T1 construct: whole, on cells; Endogenous receptor on human cell lines; alpha and beta sub-units come from one precursor; also called c-Met protein; HGF receptor
Experiment: confocal fluorescence microscopy on human c-Met expressing SNU-638 cells
Procedure: To human c-Met expressing cells (human SNU-638 cells) or human c-Met non-expressing cells (human SNU-216 cells) cultured on a glass-bottom dish were added a RPMI1640 medium containing 1 mg/L of Hoechst 33342, a nuclear staining reagent, an anti-human c-Met antibody, and 1 uM of L5-2-fluorescein, D4-3-fluorescein, D5-4-fluorescein, D4-3NMe-fluorescein, or D4-3scr-fluorescein and the resulting mixture was incubated in 5% CO₂ at 37° C. for 5 minutes. Then, a RPMI1640 medium containing an HRP-anti-rat secondary antibody and 1 μM of L5-2-fluorescein, D4-3-fluorescein, D5-4-fluorescein, D4-3NMe-fluorescein, or D4-3scr-fluorescein was added and the resulting mixture was incubated in 5% CO₂ at 37° C. for 5 minutes.
The cells were washed three times with a D-MEM medium and were microscopically observed in a new RPMI1640 medium. The localization of the peptide was observed using a confocal fluorescence microscope for the microscopic observation.

T1 sequence (P08581 25-1390): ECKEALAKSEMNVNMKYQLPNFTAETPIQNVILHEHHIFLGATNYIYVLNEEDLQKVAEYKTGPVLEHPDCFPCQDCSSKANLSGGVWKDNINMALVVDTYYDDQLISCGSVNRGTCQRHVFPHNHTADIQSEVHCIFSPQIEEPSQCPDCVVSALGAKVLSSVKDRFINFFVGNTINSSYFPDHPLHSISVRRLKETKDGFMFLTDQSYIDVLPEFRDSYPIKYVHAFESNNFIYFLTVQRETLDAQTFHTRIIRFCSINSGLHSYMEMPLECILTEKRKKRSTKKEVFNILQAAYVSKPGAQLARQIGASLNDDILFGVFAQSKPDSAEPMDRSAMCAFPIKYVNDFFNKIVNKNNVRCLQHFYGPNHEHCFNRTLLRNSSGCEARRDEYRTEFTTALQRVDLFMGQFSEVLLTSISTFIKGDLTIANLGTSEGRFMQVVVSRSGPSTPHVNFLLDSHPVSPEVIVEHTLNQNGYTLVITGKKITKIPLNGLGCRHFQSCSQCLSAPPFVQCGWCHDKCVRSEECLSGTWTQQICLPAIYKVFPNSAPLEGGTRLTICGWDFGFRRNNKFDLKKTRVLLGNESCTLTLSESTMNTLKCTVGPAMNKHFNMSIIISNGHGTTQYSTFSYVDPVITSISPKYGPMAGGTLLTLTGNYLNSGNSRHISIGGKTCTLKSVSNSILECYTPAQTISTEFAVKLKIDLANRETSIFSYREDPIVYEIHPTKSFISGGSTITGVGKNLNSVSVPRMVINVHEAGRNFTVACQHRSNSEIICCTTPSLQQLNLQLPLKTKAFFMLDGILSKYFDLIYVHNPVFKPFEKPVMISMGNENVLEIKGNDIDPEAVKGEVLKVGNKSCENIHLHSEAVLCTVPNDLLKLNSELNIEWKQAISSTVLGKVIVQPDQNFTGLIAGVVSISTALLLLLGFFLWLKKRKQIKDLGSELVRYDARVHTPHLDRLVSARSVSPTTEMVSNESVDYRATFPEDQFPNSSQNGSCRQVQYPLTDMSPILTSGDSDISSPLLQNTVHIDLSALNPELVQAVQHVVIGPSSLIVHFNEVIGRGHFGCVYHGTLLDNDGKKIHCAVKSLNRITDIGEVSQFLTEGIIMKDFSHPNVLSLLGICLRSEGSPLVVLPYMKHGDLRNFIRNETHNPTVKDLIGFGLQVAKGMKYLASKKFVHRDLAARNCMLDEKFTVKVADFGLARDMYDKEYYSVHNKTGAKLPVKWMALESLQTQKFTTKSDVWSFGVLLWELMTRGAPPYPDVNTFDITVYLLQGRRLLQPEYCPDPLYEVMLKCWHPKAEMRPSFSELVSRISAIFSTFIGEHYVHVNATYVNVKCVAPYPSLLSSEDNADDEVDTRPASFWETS

- binding result: no binding (tested: 1 uM)
Binder: {CH2CO}-YERVNHLFRNQTWDRCGK(fluorescein) (thioether N-16, Negative control) [D4-3scr-fluorescein]
